Experimental data from article PMC3001090.

Target: T1, Rv1495 (MazF homolog) (Mycobacterium tuberculosis, UniProt P9WII5 1-105)
T1 sequence: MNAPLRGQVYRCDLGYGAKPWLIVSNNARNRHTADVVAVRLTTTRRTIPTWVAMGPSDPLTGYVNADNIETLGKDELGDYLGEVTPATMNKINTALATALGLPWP
Assay: EMSA

## CAGTGAGCGAGCTTCCGCTTGACATCCCAATA (ssDNA) [32-mer TopA substrate oligonucleotide]
  binding result: no binding
